Literature values as cited in article PMC6347146.

Molecular target: IL-21R (Homo sapiens) (UniProt Q9HBE5)
Sequence of UniProt Q9HBE5 (Q9HBE5 20-232): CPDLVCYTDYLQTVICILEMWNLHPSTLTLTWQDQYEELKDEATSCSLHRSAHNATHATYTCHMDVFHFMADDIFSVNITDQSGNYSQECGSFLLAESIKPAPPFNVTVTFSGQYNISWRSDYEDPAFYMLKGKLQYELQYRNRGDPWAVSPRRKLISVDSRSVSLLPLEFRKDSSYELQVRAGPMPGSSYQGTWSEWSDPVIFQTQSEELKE

IL-21 (from UniProt Q9HBE4)
Kd: 0.07 nM
